Results published in publication PMC11574045, “A cofactor-induced repressive type of transcription factor condensation can be induced by synthetic peptides to suppress tumorigenesis” (The EMBO Journal, 2024).

B1: ZGLP1 (protein, UniProt P0C6A0 1-273, looked up)
GATA-type zinc finger protein …: MEAEPIPDSSMPAKLLAPPCLNLERLGGSPSQEKPRTPGCCRISERSLWPACQESVTALCFLQETVERLGQSPAQDTPVLGPCWDPMALGTQGRLLLDRDSKDTQTRISQKGRRLQPPGTPSAPPQRRPRKQLNPCRGTERVDPGFEGVTLKFQIKPDSSLQIIPTYSLPCSSRSQESPADAVGGPAAHPGGTEAHSAGSEALEPRRCASCRTQRTPLWRDAEDGTPLCNACGIRYKKYGTRCSSCWLVPRKNVQPKRLCGRCGVSLDPIQEG
B2: ZFP144 (protein, UniProt P35227 1-344, looked up)
Polycomb group RING finger …: MHRTTRIKITELNPHLMCALCGGYFIDATTIVECLHSFCKTCIVRYLETNKYCPMCDVQVHKTRPLLSIRSDKTLQDIVYKLVPGLFKDEMKRRRDFYAAYPLTEVPNGSNEDRGEVLEQEKGALSDDEIVSLSIEFYEGARDRDEKKGPLENGDGDKEKTGVRFLRCPAAMTVMHLAKFLRNKMDVPSKYKVEVLYEDEPLKEYYTLMDIAYIYPWRRNGPLPLKYRVQPACKRLTLATVPTPSEGTNTSGASECESVSDKAPSPATLPATSSSLPSPATPSHGSPSSHGPPATHPTSPTPPSTASGATTAANGGSLNCLQTPSSTSRGRKMTVNGAPVPPLT
B3: CALR (protein, UniProt P27797 18-417, looked up)
Calreticulin: EPAVYFKEQFLDGDGWTSRWIESKHKSDFGKFVLSSGKFYGDEEKDKGLQTSQDARFYALSASFEPFSNKGQTLVVQFTVKHEQNIDCGGGYVKLFPNSLDQTDMHGDSEYNIMFGPDICGPGTKKVHVIFNYKGKNVLINKDIRCKDDEFTHLYTLIVRPDNTYEVKIDNSQVESGSLEDDWDFLPPKKIKDPDASKPEDWDERAKIDDPTDSKPEDWDKPEHIPDPDAKKPEDWDEEMDGEWEPPVIQNPEYKGEWKPRQIDNPDYKGTWIHPEIDNPEYSPDPSIYAYDNFGVLGLDLWQVKSGTIFDNFLITNDEAYAEEFGNETWGVTKAAEKQMKDKQDEEQRLKEEEEDKKRKEEEEAEDKEDDEDKDEDEEDEEDKEEDEEEDVPGQAKDEL
B4: ZFY (protein, UniProt P08048 1-801, looked up)
Zinc finger Y-chromosomal …: MDEDEFELQPQEPNSFFDGIGADATHMDGDQIVVEIQEAVFVSNIVDSDITVHNFVPDDPDSVVIQDVVEDVVIEEDVQCSDILEEADVSENVIIPEQVLDSDVTEEVSLPHCTVPDDVLASDITSTSMSMPEHVLTSESMHVCDIGHVEHMVHDSVVEAEIITDPLTSDIVSEEVLVADCAPEAVIDASGISVDQQDNDKASCEDYLMISLDDAGKIEHDGSTGVTIDAESEMDPCKVDSTCPEVIKVYIFKADPGEDDLGGTVDIVESEPENDHGVELLDQNSSIRVPREKMVYMTVNDSQQEDEDLNVAEIADEVYMEVIVGEEDAAVAAAAAAVHEQQIDEDEMKTFVPIAWAAAYGNNSDGIENRNGTASALLHIDESAGLGRLAKQKPKKKRRPDSRQYQTAIIIGPDGHPLTVYPCMICGKKFKSRGFLKRHMKNHPEHLAKKKYHCTDCDYTTNKKISLHNHLESHKLTSKAEKAIECDECGKHFSHAGALFTHKMVHKEKGANKMHKCKFCEYETAEQGLLNRHLLAVHSKNFPHICVECGKGFRHPSELRKHMRIHTGEKPYQCQYCEYRSADSSNLKTHIKTKHSKEMPFKCDICLLTFSDTKEVQQHTLVHQESKTHQCLHCDHKSSNSSDLKRHVISVHTKDYPHKCEMCEKGFHRPSELKKHVAVHKGKKMHQCRHCDFKIADPFVLSRHILSVHTKDLPFRCKRCRKGFRQQNELKKHMKTHSGRKVYQCEYCEYSTTDASGFKRHVISIHTKDYPHRCEYCKKGFRRPSEKNQHIMRHHKEVGLP
B5: ZFAT (protein, UniProt Q9P243 1-1243, looked up)
Zinc finger protein ZFAT: METRAAENTAIFMCKCCNLFSPNQSELLSHVSEKHMEEGVNVDEIIIPLRPLSTPEPPNSSKTGDEFLVMKRKRGRPKGSTKKSSTEEELAENIVSPTEDSPLAPEEGNSLPPSSLECSKCCRKFSNTRQLRKHICIIVLNLGEEEGEAGNESDLELEKKCKEDDREKASKRPRSQKTEKVQKISGKEARQLSGAKKPIISVVLTAHEAIPGATKIVPVEAGPPETGATNSETTSADLVPRRGYQEYAIQQTPYEQPMKSSRLGPTQLKIFTCEYCNKVFKFKHSLQAHLRIHTNEKPYKCPQCSYASAIKANLNVHLRKHTGEKFACDYCSFTCLSKGHLKVHIERVHKKIKQHCRFCKKKYSDVKNLIKHIRDAHDPQDKKVKEALDELCLMTREGKRQLLYDCHICERKFKNELDRDRHMLVHGDKWPFACELCGHGATKYQALELHVRKHPFVYVCAVCRKKFVSSIRLRTHIKEVHGAAQEALVFTSSINQSFCLLEPGGDIQQEALGDQLQLVEEEFALQGVNALKEEACPGDTQLEEGRKEPEAPGEMPAPAVHLASPQAESTALPPCELETTVVSSSDLHSQEVVSDDFLLKNDTSSAEAHAAPEKPPDMQHRSSVQTQGEVITLLLSKAQSAGSDQESHGAQSPLGEGQNMAVLSAGDPDPSRCLRSNPAEASDLLPPVAGGGDTITHQPDSCKAAPEHRSGITAFMKVLNSLQKKQMNTSLCERIRKVYGDLECEYCGKLFWYQVHFDMHVRTHTREHLYYCSQCHYSSITKNCLKRHVIQKHSNILLKCPTDGCDYSTPDKYKLQAHLKVHTALDKRSYSCPVCEKSFSEDRLIKSHIKTNHPEVSMSTISEVLGRRVQLKGLIGKRAMKCPYCDFYFMKNGSDLQRHIWAHEGVKPFKCSLCEYATRSKSNLKAHMNRHSTEKTHLCDMCGKKFKSKGTLKSHKLLHTADGKQFKCTVCDYTAAQKPQLLRHMEQHVSFKPFRCAHCHYSCNISGSLKRHYNRKHPNEEYANVGTGELAAEVLIQQGGLKCPVCSFVYGTKWEFNRHLKNKHGLKVVEIDGDPKWETATEAPEEPSTQYLHITEAEEDVQGTQAAVAALQDLRYTSESGDRLDPTAVNILQQIIELGAETHDATALASVVAMAPGTVTVVKQVTEEEPSSNHTVMIQETVQQASVELAEQHHLVVSSDDVEGIETVTVYTQGGEASEFIVYVQEAMQPVEEQAVEQPAQEL
B6: ZIC3 (protein, UniProt O60481 1-467, looked up)
Zinc finger protein ZIC 3: MTMLLDGGPQFPGLGVGSFGAPRHHEMPNREPAGMGLNPFGDSTHAAAAAAAAAAFKLSPAAAHDLSSGQSSAFTPQGSGYANALGHHHHHHHHHHHTSQVPSYGGAASAAFNSTREFLFRQRSSGLSEAASGGGQHGLFAGSASSLHAPAGIPEPPSYLLFPGLHEQGAGHPSPTGHVDNNQVHLGLRGELFGRADPYRPVASPRTDPYAAGAQFPNYSPMNMNMGVNVAAHHGPGAFFRYMRQPIKQELSCKWIDEAQLSRPKKSCDRTFSTMHELVTHVTMEHVGGPEQNNHVCYWEECPREGKSFKAKYKLVNHIRVHTGEKPFPCPFPGCGKIFARSENLKIHKRTHTGEKPFKCEFEGCDRRFANSSDRKKHMHVHTSDKPYICKVCDKSYTHPSSLRKHMKVHESQGSDSSPAASSGYESSTPPAIASANSKDTTKTPSAVQTSTSHNPGLPPNFNEWYV
B7: ZFP36L1 (protein, UniProt P23950 1-338, looked up)
mRNA decay activator protein …: MTTTLVSATIFDLSEVLCKGNKMLNYSTPSAGGCLLDRKAVGTPAGGGFPRRHSVTLPSSKFHQNQLLSSLKGEPAPSLSSRDSRFRDRSFSEGGERLLPTQKQPGSGQVNSSRYKTELCRPFEENGACKYGDKCQFAHGIHELRSLTRHPKYKTELCRTFHTIGFCPYGPRCHFIHNAEERRALAGGRDLSADRPRLQHSFSFAGFPSAAATAAATGLLDSPTSITPPPILSADDLLGSPTLPDGTNNPFAFSSQELASLFAPSMGLPGGGSPTTFLFRPMSESPHMFDSPPSPQDSLSDHEGYLSSSSSSHSGSDSPTLDNSRRLPIFSRLSISDD
B8: ZFP67 (protein, UniProt O15156 1-539, looked up)
Zinc finger and BTB …: MGSPEDDLIGIPFPDHSSELLSCLNEQRQLGHLCDLTIRTQGLEYRTHRAVLAACSHYFKKLFTEGGGGAVMGAGGSGTATGGAGAGVCELDFVGPEALGALLEFAYTATLTTSSANMPAVLQAARLLEIPCVIAACMEILQGSGLEAPSPDEDDCERARQYLEAFATATASGVPNGEDSPPQVPLPPPPPPPPRPVARRSRKPRKAFLQTKGARANHLVPEVPTVPAHPLTYEEEEVAGRVGSSGGSGPGDSYSPPTGTASPPEGPQSYEPYEGEEEEEELVYPPAYGLAQGGGPPLSPEELGSDEDAIDPDLMAYLSSLHQDNLAPGLDSQDKLVRKRRSQMPQECPVCHKIIHGAGKLPRHMRTHTGEKPFACEVCGVRFTRNDKLKIHMRKHTGERPYSCPHCPARFLHSYDLKNHMHLHTGDRPYECHLCHKAFAKEDHLQRHLKGQNCLEVRTRRRRKDDAPPHYPPPSTAAASPAGLDLSNGHLDTFRLSLARFWEQSAPTGPPVSTPGPPDDDEEEGAPTTPQAEGAMESS
B9: ZFP296 (protein, UniProt Q8WUU4 1-475, looked up)
Zinc finger protein 296: MSRRKAGSAPRRVEPAPAANPDDEMEMQDLVIELKPEPDAQPQQAPRLGPFSPKEVSSAGRFGGEPHHSPGPMPAGAALLALGPRNPWTLWTPLTPNYPDRQPWTDKHPDLLTCGRCLQTFPLEAITAFMDHKKLGCQLFRGPSRGQGSEREELKALSCLRCGKQFTVAWKLLRHAQWDHGLSIYQTESEAPEAPLLGLAEVAAAVSAVVGPAAEAKSPRASGSGLTRRSPTCPVCKKTLSSFSNLKVHMRSHTGERPYACDQCPYACAQSSKLNRHKKTHRQVPPQSPLMADTSQEQASAAPPEPAVHAAAPTSTLPCSGGEGAGAAATAGVQEPGAPGSGAQAGPGGDTWGAITTEQRTDPANSQKASPKKMPKSGGKSRGPGGSCEFCGKHFTNSSNLTVHRRSHTGERPYTCEFCNYACAQSSKLNRHRRMHGMTPGSTRFECPHCHVPFGLRATLDKHLRQKHPEAAGEA
B10: CALCOCO1 (protein, UniProt Q9P1Z2 1-691, looked up)
Calcium-binding and …: MEESPLSRAPSRGGVNFLNVARTYIPNTKVECHYTLPPGTMPSASDWIGIFKVEAACVRDYHTFVWSSVPESTTDGSPIHTSVQFQASYLPKPGAQLYQFRYVNRQGQVCGQSPPFQFREPRPMDELVTLEEADGGSDILLVVPKATVLQNQLDESQQERNDLMQLKLQLEGQVTELRSRVQELERALATARQEHTELMEQYKGISRSHGEITEERDILSRQQGDHVARILELEDDIQTISEKVLTKEVELDRLRDTVKALTREQEKLLGQLKEVQADKEQSEAELQVAQQENHHLNLDLKEAKSWQEEQSAQAQRLKDKVAQMKDTLGQAQQRVAELEPLKEQLRGAQELAASSQQKATLLGEELASAAAARDRTIAELHRSRLEVAEVNGRLAELGLHLKEEKCQWSKERAGLLQSVEAEKDKILKLSAEILRLEKAVQEERTQNQVFKTELAREKDSSLVQLSESKRELTELRSALRVLQKEKEQLQEEKQELLEYMRKLEARLEKVADEKWNEDATTEDEEAAVGLSCPAALTDSEDESPEDMRLPPYGLCERGDPGSSPAGPREASPLVVISQPAPISPHLSGPAEDSSSDSEAEDEKSVLMAAVQSGGEEANLLLPELGSAFYDMASGFTVGTLSETSTGGPATPTWKECPICKERFPAESDKDALEDHMDGHFFFSTQDPFTFE

Test system: HEK293FT cells transfected with TF library
Experiment: Screening of TF condensates based on fluorescent puncta
Assay type: cell-based
Conditions: Figure 1B numerical data; TF library screen, one value per transcriptional factor
How it was run: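 Each TF construct was introduced into HEK293FT cells using PEI at 4.8 μg/ml; glucose deprivation versus normal medium lasted 12 h. Automated confocal-style imaging of tagged TF staining, 50 fields per well, gave the puncta data.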

Molecule | Z score of condensed fraction
B1 | -0.7375
B2 | 0.0768
B3 | 1.22
B4 | -1.019
B5 | -0.7456
B6 | -0.3091
B7 | 0.2477
B8 | 0.1735
B9 | 0.8818
B10 | 0.2225
